{"source": "IntAct's records for PubMed 19229295", "parents": {"B1": {"name": "Bone morphogenetic protein receptor type-1B (Homo sapiens), O00238 (parent)", "chain": "MLLRSAGKLNVGTKKEDGESTAPTPRPKVLRCKCHHHCPEDSVNNICSTDGYCFTMIEEDDSGLPVVTSGCLGLEGSDFQCRDTPIPHQRRSIECCTERNECNKDLHPTLPPLKNRDFVDGPIHHRALLISVTVCSLLLVLIILFCYFRYKRQETRPRYSIGLEQDETYIPPGESLRDLIEQSQSSGSGSGLPLLVQRTIAKQIQMVKQIGKGRYGEVWMGKWRGEKVAVKVFFTTEEASWFRETEIYQTVLMRHENILGFIAADIKGTGSWTQLYLITDYHENGSLYDYLKSTTLDAKSMLKLAYSSVSGLCHLHTEIFSTQGKPAIAHRDLKSKNILVKKNGTCCIADLGLAVKFISDTNEVDIPPNTRVGTKRYMPPEVLDESLNRNHFQSYIMADMYSFGLILWEVARRCVSGGIVEEYQLPYHDLVPSDPSYEDMREIVCIKKLRPSFPNRWSSDECLRQMGKLMTECWAHNPASRLTALRVKKTLAKMSESQDIKL", "partner": "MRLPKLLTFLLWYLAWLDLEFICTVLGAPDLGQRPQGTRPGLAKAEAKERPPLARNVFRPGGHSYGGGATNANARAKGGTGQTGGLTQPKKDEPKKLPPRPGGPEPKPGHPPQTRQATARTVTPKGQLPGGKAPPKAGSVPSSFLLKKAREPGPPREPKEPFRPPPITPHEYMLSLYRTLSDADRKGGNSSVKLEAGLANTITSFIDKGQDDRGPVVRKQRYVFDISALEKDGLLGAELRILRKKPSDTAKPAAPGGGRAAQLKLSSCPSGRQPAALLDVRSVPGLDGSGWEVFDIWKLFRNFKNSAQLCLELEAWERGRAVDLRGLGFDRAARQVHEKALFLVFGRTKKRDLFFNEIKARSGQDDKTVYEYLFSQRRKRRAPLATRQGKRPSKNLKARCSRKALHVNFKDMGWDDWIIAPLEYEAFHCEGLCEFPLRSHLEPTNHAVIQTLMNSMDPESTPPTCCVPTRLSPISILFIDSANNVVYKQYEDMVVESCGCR"}, "B2": {"name": "Growth/differentiation factor 5 (Homo sapiens), P43026 (parent)", "chain": "B1 partner"}, "B3": {"name": "Bone morphogenetic protein receptor type-1B (Homo sapiens), O00238 (parent)", "chain": "B1 chain", "partner": "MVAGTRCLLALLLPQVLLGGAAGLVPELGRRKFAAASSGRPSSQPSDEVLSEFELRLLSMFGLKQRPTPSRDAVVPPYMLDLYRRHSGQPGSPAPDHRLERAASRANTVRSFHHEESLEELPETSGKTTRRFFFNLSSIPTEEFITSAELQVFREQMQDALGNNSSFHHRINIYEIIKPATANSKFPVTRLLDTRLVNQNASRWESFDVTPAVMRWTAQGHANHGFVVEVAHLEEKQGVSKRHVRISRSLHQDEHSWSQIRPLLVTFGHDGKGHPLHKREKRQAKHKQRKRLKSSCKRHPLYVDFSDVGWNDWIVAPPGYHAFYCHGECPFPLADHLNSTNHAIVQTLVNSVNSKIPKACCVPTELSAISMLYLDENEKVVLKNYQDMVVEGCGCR"}}, "data": [{"variants_of": "B1", "details": "with gdf5_human GDF5, P43026", "values": [{"variant": "H36G", "effect of a mutation on the interaction": "decreasing interaction"}, {"variant": "H35S", "effect of a mutation on the interaction": "decreasing interaction"}]}, {"variants_of": "B1", "details": "with gdf5_human GDF5, P43026", "remark": "another data set of the same source", "values": [{"variant": "Q80A", "effect of a mutation on the interaction": "decreasing interaction"}]}, {"variants_of": "B1", "details": "with gdf5_human GDF5, P43026", "remark": "another data set of the same source", "values": [{"variant": "F79A", "effect of a mutation on the interaction": "disrupting interaction"}]}, {"variants_of": "B2", "details": "with bmr1b_human BMPR1B", "values": [{"variant": "L441P", "effect of a mutation on the interaction": "decreasing interaction"}]}, {"variants_of": "B2", "details": "with bmpr2_human BMPR2, Q13873", "values": [{"variant": "L441P", "effect of a mutation on the interaction": "increasing interaction"}]}, {"variants_of": "B2", "details": "with bmr1a_human BMPR1A", "values": [{"variant": "L441P", "effect of a mutation on the interaction": "disrupting interaction"}]}, {"variants_of": "B2", "details": "with bmpr2_human BMPR2, Q13873", "remark": "another data set of the same source", "values": [{"variant": "R438A", "effect of a mutation on the interaction": "decreasing interaction"}]}, {"variants_of": "B2", "details": "with bmr1b_human BMPR1B", "remark": "another data set of the same source", "values": [{"variant": "R438L", "effect of a mutation on the interaction": "increasing interaction"}]}, {"variants_of": "B2", "details": "with bmpr2_human BMPR2, Q13873", "remark": "another data set of the same source", "values": [{"variant": "R438L", "effect of a mutation on the interaction": "increasing interaction"}]}, {"variants_of": "B2", "details": "with bmr1a_human BMPR1A", "remark": "another data set of the same source", "values": [{"variant": "R438L", "effect of a mutation on the interaction": "increasing interaction"}]}, {"variants_of": "B3", "details": "with bmp2_human BMP2, P12643", "values": [{"variant": "Q80A", "effect of a mutation on the interaction": "decreasing interaction"}]}, {"variants_of": "B3", "details": "with bmp2_human BMP2, P12643", "remark": "another data set of the same source", "values": [{"variant": "F79A", "effect of a mutation on the interaction": "disrupting interaction"}]}, {"variants_of": "B3", "details": "with bmp2_human BMP2, P12643", "remark": "another data set of the same source", "values": [{"variant": "H35S", "effect of a mutation on the interaction": "decreasing interaction"}, {"variant": "H36G", "effect of a mutation on the interaction": "decreasing interaction"}]}]}
